# Laboratory results: the supplement of paper PMC9112550, “Optimization of the antimicrobial peptide Bac7 by deep mutational scanning” (BMC Biology, 2022)
# Test system: Escherichia coli TOP10
# Assay: shrunken log2 fold change of peptide-encoding DNA abundance (4.5 h post-induction vs induction); higher = less antimicrobial activity (less host growth inhibition)
# Details: time post-induction: 4.5 h; library: site-saturation at positions 5, 18, 19, 20
# 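Further: peptides expressed intracellularly from a pBAD plasmid library in pooled LB shake-flask culture, induced with 0.3% L-arabinose, DNA abundance read by NGS, three biological replicates, DESeq2 with apeglm shrinkage.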
row,Sequence,shrunken log2 fold change
1,RRIRPRPPRLPRPRPRPLWWPRP,0.649
2,RRIRSRPPRLPRPRPRPMKIPRP,0.108
3,RRIRVRPPRLPRPRPRPFEWPRP,-0.102
4,RRIRFRPPRLPRPRPRPRYCPRP,-0.647
5,RRIRYRPPRLPRPRPRPHQTPRP,0.0583
6,RRIRFRPPRLPRPRPRPELPPRP,-0.0615
7,RRIRKRPPRLPRPRPRPLPAPRP,1.13
8,RRIRGRPPRLPRPRPRPQTNPRP,0.433
9,RRIRTRPPRLPRPRPRPGATPRP,0.572
10,RRIRMRPPRLPRPRPRPFRCPRP,-0.0869
11,RRIRSRPPRLPRPRPRPHINPRP,-0.607
12,RRIRMRPPRLPRPRPRPWTTPRP,-0.0163
13,RRIRDRPPRLPRPRPRPGIQPRP,-0.148
14,RRIRLRPPRLPRPRPRPDLDPRP,-0.0167
15,RRIRYRPPRLPRPRPRPGQYPRP,-0.414
16,RRIRCRPPRLPRPRPRPDYKPRP,-0.375
17,RRIRWRPPRLPRPRPRPWKPPRP,-0.732
18,RRIRGRPPRLPRPRPRPNFSPRP,0.078
19,RRIRMRPPRLPRPRPRPAHNPRP,0.421
20,RRIRKRPPRLPRPRPRPMQLPRP,0.197
21,RRIRVRPPRLPRPRPRPGVIPRP,0.0193
22,RRIRRRPPRLPRPRPRPVWHPRP,0.278
23,RRIRPRPPRLPRPRPRPFGDPRP,-0.0184
24,RRIRYRPPRLPRPRPRPMRWPRP,0.448
25,RRIRWRPPRLPRPRPRPKGPPRP,3.65

row,Sequence,shrunken log2 fold change
1,RRIRPRPPRLPRPRPRPEECPRP,-0.105
2,RRIRCRPPRLPRPRPRPLGDPRP,1.87
3,RRIRTRPPRLPRPRPRPGEQPRP,0.15
4,RRIRKRPPRLPRPRPRPIHWPRP,0.137
5,RRIRYRPPRLPRPRPRPWPDPRP,-0.137
6,RRIRFRPPRLPRPRPRPLMCPRP,-0.328
7,RRIRDRPPRLPRPRPRPQKGPRP,0.00967
8,RRIRGRPPRLPRPRPRPEKHPRP,0.617
9,RRIRDRPPRLPRPRPRPISSPRP,0.00884
10,RRIRYRPPRLPRPRPRPHALPRP,-0.656
11,RRIRGRPPRLPRPRPRPTDHPRP,0.335
12,RRIRVRPPRLPRPRPRPWSRPRP,-0.273
13,RRIRKRPPRLPRPRPRPQPFPRP,0.18
14,RRIRIRPPRLPRPRPRPRMPPRP,-0.0534
15,RRIRKRPPRLPRPRPRPYICPRP,0.0572
16,RRIRWRPPRLPRPRPRPIFYPRP,-0.0652
17,RRIRWRPPRLPRPRPRPKANPRP,0.51
18,RRIRGRPPRLPRPRPRPPQMPRP,1.77
19,RRIRYRPPRLPRPRPRPCLKPRP,-0.0431
20,RRIRKRPPRLPRPRPRPYYFPRP,-0.234
21,RRIRFRPPRLPRPRPRPVEDPRP,-0.264
22,RRIRLRPPRLPRPRPRPCGWPRP,0.124
23,RRIRVRPPRLPRPRPRPHNIPRP,-0.392
24,RRIRGRPPRLPRPRPRPYSVPRP,0.0284
25,RRIRARPPRLPRPRPRPMPEPRP,0.18

row,Sequence,shrunken log2 fold change
1,RRIRDRPPRLPRPRPRPMADPRP,0.523
2,RRIRTRPPRLPRPRPRPRMAPRP,0.288
3,RRIRFRPPRLPRPRPRPEKIPRP,0.102
4,RRIRKRPPRLPRPRPRPQIEPRP,0.0198
5,RRIRMRPPRLPRPRPRPDSHPRP,-0.025
6,RRIRFRPPRLPRPRPRPTTMPRP,-0.0267
7,RRIRCRPPRLPRPRPRPRGQPRP,-0.0954
8,RRIRFRPPRLPRPRPRPHAQPRP,-0.305
9,RRIRARPPRLPRPRPRPRCEPRP,0.416
10,RRIRHRPPRLPRPRPRPDFVPRP,-0.242
11,RRIRIRPPRLPRPRPRPGDTPRP,-0.372
12,RRIRARPPRLPRPRPRPQTKPRP,0.135
13,RRIRVRPPRLPRPRPRPTAKPRP,0.0848
14,RRIRYRPPRLPRPRPRPKWHPRP,-0.358
15,RRIRTRPPRLPRPRPRPEVRPRP,0.0828
16,RRIRVRPPRLPRPRPRPYCAPRP,-0.229
17,RRIRHRPPRLPRPRPRPGYWPRP,-0.151
18,RRIRQRPPRLPRPRPRPMFHPRP,-0.815
19,RRIRYRPPRLPRPRPRPKERPRP,-0.002
20,RRIRRRPPRLPRPRPRPPMAPRP,0.487
21,RRIRKRPPRLPRPRPRPDERPRP,-0.00101
22,RRIRRRPPRLPRPRPRPDMYPRP,-0.315
23,RRIRGRPPRLPRPRPRPILKPRP,0.316
24,RRIRLRPPRLPRPRPRPASLPRP,0.105
25,RRIRNRPPRLPRPRPRPDTIPRP,-0.145

row,Sequence,shrunken log2 fold change
1,RRIRPRPPRLPRPRPRPRLGPRP,0.586
2,RRIRFRPPRLPRPRPRPELGPRP,0.144
3,RRIRDRPPRLPRPRPRPMPAPRP,0.354
4,RRIRNRPPRLPRPRPRPSENPRP,-0.296
5,RRIRTRPPRLPRPRPRPYMNPRP,-0.895
6,RRIRRRPPRLPRPRPRPIKNPRP,0.278
7,RRIRIRPPRLPRPRPRPKNCPRP,-0.164
8,RRIRERPPRLPRPRPRPEWMPRP,0.171
9,RRIRERPPRLPRPRPRPWCFPRP,-0.161
10,RRIRWRPPRLPRPRPRPFCWPRP,0.403
11,RRIRARPPRLPRPRPRPNLDPRP,-0.152
12,RRIRSRPPRLPRPRPRPALAPRP,0.419
13,RRIRKRPPRLPRPRPRPDCKPRP,-0.0333
14,RRIRQRPPRLPRPRPRPLITPRP,-0.281
15,RRIRERPPRLPRPRPRPQWMPRP,0.0273
16,RRIRRRPPRLPRPRPRPMIPPRP,-0.062
17,RRIRERPPRLPRPRPRPVTYPRP,-0.17
18,RRIRKRPPRLPRPRPRPQPAPRP,0.783
19,RRIRRRPPRLPRPRPRPPPSPRP,1.21
20,RRIRIRPPRLPRPRPRPHHWPRP,-0.18
21,RRIRERPPRLPRPRPRPDPNPRP,0.0422
22,RRIRSRPPRLPRPRPRPYSGPRP,-0.328
23,RRIRARPPRLPRPRPRPWETPRP,4.22
24,RRIRTRPPRLPRPRPRPSHEPRP,-0.299
25,RRIRSRPPRLPRPRPRPRPVPRP,1.01

row,Sequence,shrunken log2 fold change
1,RRIRRRPPRLPRPRPRPNYRPRP,0.0832
2,RRIRPRPPRLPRPRPRPDTYPRP,-0.623
3,RRIRIRPPRLPRPRPRPHPGPRP,-0.571
4,RRIRNRPPRLPRPRPRPICNPRP,-0.203
5,RRIRNRPPRLPRPRPRPKFIPRP,-0.602
6,RRIRTRPPRLPRPRPRPNYLPRP,-0.66
7,RRIRRRPPRLPRPRPRPKREPRP,0.304
8,RRIRVRPPRLPRPRPRPDAHPRP,0.21
9,RRIRKRPPRLPRPRPRPCWVPRP,0.259
10,RRIRDRPPRLPRPRPRPLFKPRP,-0.221
11,RRIRSRPPRLPRPRPRPLYAPRP,-0.164
12,RRIRTRPPRLPRPRPRPHTVPRP,-0.244
13,RRIRHRPPRLPRPRPRPERKPRP,0.0547
14,RRIRLRPPRLPRPRPRPYEHPRP,-0.583
15,RRIRFRPPRLPRPRPRPENLPRP,-0.0251
16,RRIRLRPPRLPRPRPRPRISPRP,0.0807
17,RRIRWRPPRLPRPRPRPRKCPRP,0.4
18,RRIRGRPPRLPRPRPRPVEYPRP,-0.0779
19,RRIRLRPPRLPRPRPRPWYWPRP,0.134
20,RRIRSRPPRLPRPRPRPCKYPRP,-0.0911
21,RRIRIRPPRLPRPRPRPFHAPRP,-0.388
22,RRIRLRPPRLPRPRPRPPIYPRP,-0.15
23,RRIRRRPPRLPRPRPRPQGNPRP,0.0869
24,RRIRLRPPRLPRPRPRPELMPRP,0.0527
25,RRIRRRPPRLPRPRPRPPVVPRP,0.26
